Assay [1] addresses T1, Rhesus IL-18 (rhesus (rhesus/cynomolgus)).
T1 construct: also called Rhesus/Cynomolgus IL-18; rhesus/cynomolgus IL-18
Put plainly: SPR, Biacore 3000, antibody captured on Protein A, 25 C. How it is done:
(§1) Biacore™ kinetic analysis of the humanised 2C10 antibodies was carried out on a Biacore™ 3000 instrument using Protein A capture of the antibodies in HBS-EP buffer (Biacore™). Briefly, Protein A was immobilised on a CM5 chip by primary amine coupling, using manufacturers recommended protocol, to densities around 2000-4000 resonance units (RU's). Humanised antibody was then passed over the Protein A surface and captured to levels of around 200-500 RU's, after a period of stabilisation, IL-18 (human or Rhesus) was passed over the captured antibody surface at defined concentrations and binding sensorgrams were obtained. […] All curves were double referenced against a buffer injection instead of IL-18 and the data was fitted to the 1:1 binding model using the global fit parameters in BiaEval 4.1. Off-rate ranking experiments were set up using the same Protein A capture method, however, only a single concentration of IL-18 was used (10 nM). Whilst the data was fitted using the same binding model as the kinetic analysis, since only one concentration of analyte was used on the off-rate is reported, this value is useful for ranking rather than giving an exact kinetic measurement and was used as a way of selecting which antibodies would be further investigated.
(§2) Based upon these observations selected antibodies were investigated in greater detail for binding to human and Rhesus IL-18 at 37° C. The data shown in Table 4b for human IL-18 is the mean (and standard deviation) of six separate determinations.
A general note: SPR reads the build-up and loss of mass on a sensor chip optically.

Assay [2] concerns the target T2, Human interleukin-18 (recombinant human IL-18) (human, UniProt Q14116 37-193).
T2 construct: also called hIL-18
T2 sequence: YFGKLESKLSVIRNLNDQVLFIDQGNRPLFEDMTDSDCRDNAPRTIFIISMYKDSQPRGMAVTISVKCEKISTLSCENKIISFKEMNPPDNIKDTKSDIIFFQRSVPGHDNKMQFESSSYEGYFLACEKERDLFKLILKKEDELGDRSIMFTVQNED
The assay is described as above. How it is done: as §1, with “investigated. […]” for “investigated.”

Assay [3] concerns the target T2, Human interleukin-18 (recombinant human …). In words: ELISA, human IL-18 captured by 16D10, antibody titrated. As to the method:
ELISA with all nine humanised variants was carried out at least 6 times using various batches of purified antibody preparation. FIGS. 4A-4C show representative data from one experiment which generated the EC50 value ranking illustrated in Table 7. Human IL-18 was immobilized on Nunc Maxisorp 96-well plates using 2.5 µg/ml of 16D10 (non-neutralising mouse monoclonal antibody) to capture 5 ng/ml of recombinant human IL-18. Anti-IL-18 humanised antibodies were added at various dilutions. Bound humanised antibodies were detected using anti-human IgG Fc specific peroxidase conjugate (Sigma A0170).
(In general: An ELISA detects its analyte on a solid surface through an enzyme-linked reagent.)

Assay [4] shares this target. Put plainly: SPR, Biacore 3000, antibody captured on Protein A, 37 C. How it is done:
as §1, §2

In assay [5] the target is T1, Rhesus IL-18. Described as above. How it is done: as §1, §2
Assay [6] addresses T2, Human interleukin-18 (recombinant human …). Put plainly: ELISA, antibody on plate, human IL-18 captured, detected by 16D10; room temperature, blocking buffer. As to the method:
(§3) ELISA was carried out with the three Humanised H1 variants; H1L1, H1L2 and H1L3 to assess binding to human IL-18 at room temperature and at 37° C. in both human serum and in block solution (PBS 0.05% TWEEN with 1% BSA (w/v)). The Humanised antibody variants were immobilised on Nunc Maxisorp 96-well plates at 2.5 µg/ml. Capture of 5 ng/ml of recombinant human IL-18 was carried out either at room temperature or 37° C. in human serum or block solution. Anti-IL-18 mouse monoclonal antibody 16D10 was added. The bound mouse antibody was detected using anti-mouse kappa peroxidase conjugate (Serotec MCA 1291P). Representative EC50 values generated from the study data are illustrated in Table 9.

The target is the same in assay [7]. Put plainly: ELISA, antibody on plate, human IL-18 captured, detected by 16D10; 37 C, in serum. As to the method: as §3
The target is the same in assay [8]. In words: SPR, Biacore T100, antibody captured on Protein A, 32 C. As to the method: (§4) The methodology was basically the same as for the method used in Example 4a above; Protein A was immobilised on a CM5 chip at densities of between 2000-6000 RU's by primary amine coupling. Runs were carried out in HBS-EP (Biacore™). The anti-IL-18 antibodies were captured to densities of between 100-500 RUs, human IL-18 was passed over this captured surface at concentrations between 16-0.0625 nM, with 0 nM concentration (i.e., a buffer only injection of captured antibody) used for double referencing. Regeneration after each injection of IL-18 was by mild acidic elution using two injections of 10 mM glycine, pH1.5. […] The binding curves obtained were analysed using the analysis software inherent to the T100 machine using the 1:1 model of binding. Runs were carried out at the temperatures indicated.
(§5) This experiment was carried out using the above method at various temperatures. […] Table 5 details the kinetic values used to create these figures.

For assay [9] the target is unchanged. Put plainly: ELISA, antibody on plate, human IL-18 captured, detected by 16D10; room temperature, in serum. How it is done: as §3
For assay [10] the target is unchanged. Put plainly: SPR, Biacore T100, antibody captured on Protein A, 25 C. As to the method: as §4, §5
The target is the same in assay [11]. Put plainly: SPR, Biacore T100, Protein A capture, 25 C, mean n = 4. As to the method: as §4
(§6) These experiments were carried out as described above. Table 6 details the kinetic parameters obtained. […] H1L2 has a better on-rate (ka) than H1L1.

For assay [12] the target is unchanged. In words: SPR, Biacore T100, antibody captured on Protein A, 37 C. As to the method: as §4, §5
For assay [13] the target is unchanged. Put plainly: SPR, Biacore T100, Protein A capture, 37 C, mean n = 6. As to the method:
as §4, §6

Assay [14] has the same target. Put plainly: ELISA, antibody on plate, human IL-18 captured, detected by 16D10; 37 C, blocking buffer. As to the method: as §3
For assay [15] the target is unchanged. Put plainly: cell-based or functional assay.
The target is the same in assay [16]. Put plainly: SPR, Biacore T100, antibody captured on Protein A, 20 C. As to the method:
as §4, §5

Assay [17] shares this target. In words: SPR, Biacore T100, antibody captured on Protein A, 15 C.
The target in assay [18] is T1, Rhesus IL-18. In words: Rhesus IL18 binding ELISA, antibody titrated, OD 490 nm.

What is called Kd is the equilibrium constant for the complex coming apart. In general, EC50 refers to the concentration that produces a half-maximal response. The term EC50 (read off the curve) denotes the concentration that produces a half-maximal response. A high value points to lower potency in that assay.

B1: H2L2 humanised anti-IL-18 antibody (antibody, human IgG1, kappa, V domains shown)
VH: QVQLVQSGAEVKKPGASVKVSCKVSGEISTGYYFHWVRRRPGKGLEWMGRIDPEDDSTKYAERFKDRVTMTEDTSTDTAYMELSSLRSEDTAVYYCTTWRIYRDSSGRPFYVMDAWGQGTLVTVSS
VL: DIQMTQSPSSVSASVGDRVTITCLASEDIYTYLTWYQQKPGKAPKLLIYGANKLQDGVPSRFSGSGSGTDYTLTISSLQPEDFATYYCLQGSKFPLTFGQGTKLEIKR
notes: Human IgG1 / kappa
For the molecule B1, the Kd with Rhesus IL-18 [1] was 0.104 nM; in assay [2], 0.0201 nM. The EC50 in [3] worked out at 0.012 µg/mL.

B2: H3L2 humanised anti-IL-18 antibody (antibody, human IgG1, kappa, V domains shown)
VH: QVQLVQSGAEVKKPGASVKVSCKVSGEISTGYYFHFVRRRPGKGLEWMGRIDPEDDSTKYAERFKDRVTMTADTSTDTAYMELSSLRSEDTATYFCTTWRIYRDSSGRPFYVMDAWGQGTLVTVSS
VL: DIQMTQSPSSVSASVGDRVTITCLASEDIYTYLTWYQQKPGKAPKLLIYGANKLQDGVPSRFSGSGSGTDYTLTISSLQPEDFATYYCLQGSKFPLTFGQGTKLEIKR
notes: Human IgG1 / kappa
In the case of B2, the Kd stood at 0.0596 nM with Rhesus IL-18 [1], 0.105 nM in assay [4], 0.0643 nM with Rhesus IL-18 [5] and 0.0165 nM in assay [2]. Also, in assay [3], the half-maximal effective concentration (EC50) was determined as 0.008 µg/mL.

B3: H3L1 humanised anti-IL-18 antibody (antibody, human IgG1, kappa, V domains shown)
VH: QVQLVQSGAEVKKPGASVKVSCKVSGEISTGYYFHFVRRRPGKGLEWMGRIDPEDDSTKYAERFKDRVTMTADTSTDTAYMELSSLRSEDTATYFCTTWRIYRDSSGRPFYVMDAWGQGTLVTVSS
VL: DIQMTQSPSSVSASVGDRVTITCLASEDIYTYLTWYQQKPGKAPKLLIYGANKLQDGVPSRFSGSGSGTDFTLTISSLQPEDFATYYCLQGSKFPLTFGQGTKLEIKR
notes: Human IgG1 / kappa
As to B3, the Kd in the assay with Rhesus IL-18 [1] was 0.149 nM; in assay [2], 0.0194 nM. Moreover, in [3], the EC50 worked out at 0.013 µg/mL.

B4: H1L1 humanised anti-IL-18 antibody (antibody, human IgG1, kappa, V domains shown)
VH: QVQLVQSGAEVKKPGASVKVSCKVSGEISTGYYFHWVRQAPGKGLEWMGRIDPEDDSTKYAERFKDRVTMTEDTSTDTAYMELSSLRSEDTAVYYCTTWRIYRDSSGRPFYVMDAWGQGTLVTVSS
VL: DIQMTQSPSSVSASVGDRVTITCLASEDIYTYLTWYQQKPGKAPKLLIYGANKLQDGVPSRFSGSGSGTDFTLTISSLQPEDFATYYCLQGSKFPLTFGQGTKLEIKR
notes: Human IgG1 / kappa
As for B4, the EC50 was 0.00331 µg/mL in assay [6]; 0.0121 µg/mL in [7]; 0.0102 µg/mL in assay [9]; 0.00343 µg/mL in assay [14]; 0.01 µg/mL in [3]. Also, the Kd was found to be 0.0472 nM in assay [8]; 0.38 nM with Rhesus IL-18 [1]; 0.0311 nM in assay [10]; 0.0331 nM in assay [11]; 0.0533 nM in [12]; 0.0943 nM in [13]. The Kd in [2] was 0.0332 nM; in [16], 0.0237 nM; in assay [17], 0.0201 nM. In assay [15], the “% change vs 2C10 (IC50, KG-1 bioassay)” value was found to be 269%.

B5: H2L1 humanised anti-IL-18 antibody (antibody, human IgG1, kappa, V domains shown)
VH: QVQLVQSGAEVKKPGASVKVSCKVSGEISTGYYFHWVRRRPGKGLEWMGRIDPEDDSTKYAERFKDRVTMTEDTSTDTAYMELSSLRSEDTAVYYCTTWRIYRDSSGRPFYVMDAWGQGTLVTVSS
VL: DIQMTQSPSSVSASVGDRVTITCLASEDIYTYLTWYQQKPGKAPKLLIYGANKLQDGVPSRFSGSGSGTDFTLTISSLQPEDFATYYCLQGSKFPLTFGQGTKLEIKR
notes: Human IgG1 / kappa
Consider B5, for which the values for the Kd (in the assay with Rhesus IL-18 [1]; in assay [2]) were 0.627 nM and 0.0335 nM, respectively. In [3], the EC50 is 0.021 µg/mL.

B6: H3L3 humanised anti-IL-18 antibody (antibody, human IgG1, kappa, V domains shown)
VH: QVQLVQSGAEVKKPGASVKVSCKVSGEISTGYYFHFVRRRPGKGLEWMGRIDPEDDSTKYAERFKDRVTMTADTSTDTAYMELSSLRSEDTATYFCTTWRIYRDSSGRPFYVMDAWGQGTLVTVSS
VL: DIQMTQSPSSVSASVGDRVTITCLASEDIYTYLTWYQQKPGKAPQLLIYGANKLQDGVPSRFSGSGSGTDYTLTISSLQPEDEGDYYCLQGSKFPLTFGQGTKLEIKR
notes: Human IgG1 / kappa
As for B6, the figures for the Kd (in assay [4]; in the assay with Rhesus IL-18 [5]; in assay [2]) were 0.11 nM, 0.0756 nM and 0.0242 nM, respectively. Further, the “EC50 (read off the curve)” value with Rhesus IL-18 [18] was around 0.03 µg/mL. Also, the EC50 in [3] is 0.009 µg/mL.

B7: H2L3 humanised anti-IL-18 antibody (antibody, human IgG1, kappa, V domains shown)
VH: QVQLVQSGAEVKKPGASVKVSCKVSGEISTGYYFHWVRRRPGKGLEWMGRIDPEDDSTKYAERFKDRVTMTEDTSTDTAYMELSSLRSEDTAVYYCTTWRIYRDSSGRPFYVMDAWGQGTLVTVSS
VL: DIQMTQSPSSVSASVGDRVTITCLASEDIYTYLTWYQQKPGKAPQLLIYGANKLQDGVPSRFSGSGSGTDYTLTISSLQPEDEGDYYCLQGSKFPLTFGQGTKLEIKR
notes: Human IgG1 / kappa
Take B7: the Kd in assay [2] was 0.0238 nM. Further, the EC50 in [3] came to 0.016 µg/mL.
